Laboratory results published in patent publication US20260209265A1 (NAVIGO PROTEINS, published 2026).

Legend:
Octagam (IgG sample) [1] = target: T1, Octagam (IgG sample); test: DBC10 of the immobilized ligand after 50 h in 1 M NaOH, in % of the DBC10 at 0 h; Octagam loaded, 6 min residence time
T1 construct: also called hIgG

Panitumab (IgG2) = target: T2, Panitumab (IgG2); test: SPR (Bruker SPR-32, 25 C, Langmuir 1:1 model)
T2 construct: also called hIgG2
Text: (§1) A sensor chip (Bruker) was equilibrated with surface plasmon resonance (SPR) running buffer. Surface-exposed carboxylic groups were activated by passing a mixture of EDC and NHS to yield reactive ester groups. 700-1500 RU on-ligand were immobilized on a flow cell, off-ligand was immobilized on another flow cell. Injection of ethanolamine after ligand immobilization removes non-covalently bound Ig binding protein. Upon ligand binding, protein analyte was accumulated on the surface increasing the refractive index. This change in the refractive index was measured in real time and plotted as response or resonance units (RU) versus time. The analytes were applied to the chip in serial dilutions with a suitable flow rate (pl/min). After each run, the chip surface was regenerated with regeneration buffer and equilibrated with running buffer. The control samples were applied to the matrix. Regeneration and re-equilibration were performed as previously mentioned. Binding studies were carried out by the use of the Bruker SPR-32 at 25° C.; data evaluation was operated via the Bruker evaluation software, provided by the manufacturer, by the use of the Langmuir 1:1 model (RI=0).

Natalizumab (IgG4) = test: SPR (Bruker SPR-32, 25 C, Langmuir 1:1 model)
Text: as §1

Octagam (IgG sample) [2] = target: T1, Octagam (IgG sample); test: step pH elution with 0.1 M acetic acid of hIgG (Octagam) bound to the immobilized ligand; percent of the bound IgG released at pH 3.7
Octagam (IgG sample) [3] = target: T1, Octagam (IgG sample); test: dynamic binding capacity at 10% breakthrough; ligand coupled to agarose beads, Octagam 2.2 mg/ml loaded
Octagam (IgG sample) [4] = target: T1, Octagam (IgG sample); test: step pH elution with 0.1 M acetic acid of hIgG (Octagam) bound to the immobilized ligand; percent of the bound IgG released at pH 4.0

Chain of Natalizumab (IgG4) (VH, as listed by the source, chain 1 of 2): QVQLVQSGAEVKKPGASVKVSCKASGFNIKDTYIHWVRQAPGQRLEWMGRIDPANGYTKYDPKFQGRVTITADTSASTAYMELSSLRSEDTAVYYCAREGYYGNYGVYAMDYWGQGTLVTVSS
Chain of Natalizumab (IgG4) (VL, as listed by the source, chain 2 of 2): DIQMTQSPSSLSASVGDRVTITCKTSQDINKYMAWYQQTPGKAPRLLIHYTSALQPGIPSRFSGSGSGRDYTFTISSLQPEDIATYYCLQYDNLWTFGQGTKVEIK

B1: 224777 (SEQ ID NO: 7) (designed binder)
chain: AQFDKIAQIAFYAILHLPNLTEEQRHAFIQSLRDDPSVSKEILAEAKKLNDAQAPKIAAQFDKIAQIAFYAILHLPNLTEEQRHAFIQSLRDDPSVSKEILAEAKKLNDAQAPKIAAQFDKIAQIAFYAILHLPNLTEEQRHAFIQSLRDDPSVSKEILAEAKKLNDAQAPKIAAQFDKIAQIAFYAILHLPNLTEEQRHAFIQSLRDDPSVSKEILAEAKKLNDAQAPKIAAQFDKIAQIAFYAILHLPNLTEEQRHAFIQSLRDDPSVSKEILAEAKKLNDAQAPK
notes: also called 224777 pentamer
Octagam (IgG sample) [1]
  Remaining IgG binding capacity after 50 h, 1 M NaOH (%): 76%
Panitumab (IgG2)
  Kd: 5.8 nM
Natalizumab (IgG4)
  Kd: 2 nM
Octagam (IgG sample) [2]
  Amount eluted IgG pH 3.7 (%): 0%
Octagam (IgG sample) [3]
  DBC10% 6 min residence time: 61 mg/mL
Octagam (IgG sample) [4]
  Amount eluted IgG pH 4.0 (%): 100%
